This is an account of results in patent US20150044237A1 (CENTRE NATIONAL DE LA RECHERCHE SCIENTIFIQUE, published 2015).

In general, Kd refers to a measure of binding affinity in units of concentration. In general, koff refers to the rate constant with which the complex falls apart. For orientation: kon means a measure of how fast the partners come together.

The chains are these.
T1: Fas (CD95/APO-1) on Jurkat cells (human, UniProt P25445 26-335)
T1 sequence (looked up): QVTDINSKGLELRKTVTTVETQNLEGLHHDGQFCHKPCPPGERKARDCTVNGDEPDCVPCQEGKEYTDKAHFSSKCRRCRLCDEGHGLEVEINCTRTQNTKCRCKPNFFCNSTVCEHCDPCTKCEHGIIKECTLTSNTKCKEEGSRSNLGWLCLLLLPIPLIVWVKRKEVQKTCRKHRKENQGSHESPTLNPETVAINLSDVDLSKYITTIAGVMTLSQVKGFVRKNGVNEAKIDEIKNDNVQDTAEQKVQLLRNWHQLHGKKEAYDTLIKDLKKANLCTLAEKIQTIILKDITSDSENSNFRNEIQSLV

T2: cleaved FasL (cFasL) (human, UniProt P48023 127-281)
T2 construct: range 127-281; Supernatant of COS cells transfected with wild-type FasL; also called spontaneously cleaved membrane FasL; metalloprotease-cleaved FasL
T2 sequence (looked up): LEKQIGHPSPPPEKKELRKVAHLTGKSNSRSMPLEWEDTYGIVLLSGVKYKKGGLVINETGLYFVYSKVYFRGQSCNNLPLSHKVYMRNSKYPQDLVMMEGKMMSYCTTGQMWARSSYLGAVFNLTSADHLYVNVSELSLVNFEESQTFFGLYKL

B1: polymeric Flag-tagged soluble FasL (pfFasL) (ligand, not shown: small tags and cut ends)
chain: IPDSQTKVFPQDKVILVGSDITFCCVSQEKVLSALIGHTNCPLIHLDGENVAIKIRNISVSASSGTNVVFTTEDNIFGTVISRALQKELAELRESTSQMHTASSLEKQIGHPSPPPEKKELRKVAHLTGKSNSRSMPLEWEDTYGIVLLSGVKYKKGGLVINETGLYFVYSKVYFRGQSCNNLPLSHKVYMRNSKYPQDLVMMEGKMMSYCTTGQMWARSSYLGAVFNLTSADHLYVNVSELSLVNFEESQTFFGLYKL
B2: IgFasL (ligand)
chain: B1 chain
notes: also called pFasL; polymeric FasL
B3: soluble FasL (sFasL) (ligand)
chain: QKELAELRESTSQMHTASSLEKQIGHPSPPPEKKELRKVAHLTGKSNSRSMPLEWEDTYGIVLLSGVKYKKGGLVINETGLYFVYSKVYFRGQSCNNLPLSHKVYMRNSKYPQDLVMMEGKMMSYCTTGQMWARSSYLGAVFNLTSADHLYVNVSELSLVNFEESQTFFGLYKL
B4: D1IgD2FasL (ligand, human)
chain: QKKGAPHDLKCVTNNLQVWNCSWKAPSGTGRGTDYEVCIENRSRSCYQLEKTSIKIPALSHGDYEITINSLHDFGSSTSKFTLNEQNVSLIPDTPEILNLSADFSTSTLYLKWNDRGSVFPHRSNVIWEIKVLRKESMELVKLVTHNTTLNGKDTLHHWSWASDMPLECAIHFVEIRCYIDNLHFSGLEEWSDWSPVKNISWIPDSQTKVFPQDKVILVGSDITFCCVSQEKVLSALIGHTNCPLIHLDGENVAIKIRNISVSASSGTNVVFTTEDNIFGTVIFAGYPPDTPQQLNCETHDLKEIICSWNPGRVTALVGPRATSYTLVESFSGKYVRLKRAEAPTNESYQLLFQMLPNQEIYNFTLNAHNPLGRSQSTILVNITEKVYPHTPTSFKVKDINSTAVKLSWHLPGNFAKINFLCEIEIKKSNSVQEQRNVTIKGVENSSYLVALDKLNPYTLYTFRIRCSTETFWKWSKWSNKKQHLTTEASQKELAELRESTSQMHTASSLEKQIGHPSPPPEKKELRKVAHLTGKSNSRSMPLEWEDTYGIVLLSGVKYKKGGLVINETGLYFVYSKVYFRGQSCNNLPLSHKVYMRNSKYPQDLVMMEGKMMSYCTTGQMWARSSYLGAVFNLTSADHLYVNVSELSLVNFEESQTFFGLYKL
B5: D2FasL (ligand, human)
chain: TPQQLNCETHDLKEIICSWNPGRVTALVGPRATSYTLVESFSGKYVRLKRAEAPTNESYQLLFQMLPNQEIYNFTLNAHNPLGRSQSTILVNITEKVYPHTPTSFKVKDINSTAVKLSWHLPGNFAKINFLCEIEIKKSNSVQEQRNVTIKGVENSSYLVALDKLNPYTLYTFRIRCSTETFWKWSKWSNKKQHLTTEASQKELAELRESTSQMHTASSLEKQIGHPSPPPEKKELRKVAHLTGKSNSRSMPLEWEDTYGIVLLSGVKYKKGGLVINETGLYFVYSKVYFRGQSCNNLPLSHKVYMRNSKYPQDLVMMEGKMMSYCTTGQMWARSSYLGAVFNLTSADHLYVNVSELSLVNFEESQTFFGLYKL
notes: domain: D2
B6: Recombinant Fas-Fc (R&Dsystems) (Fc fusion, UniProt P25445 26-173, looked up)
chain: QVTDINSKGLELRKTVTTVETQNLEGLHHDGQFCHKPCPPGERKARDCTVNGDEPDCVPCQEGKEYTDKAHFSSKCRRCRLCDEGHGLEVEINCTRTQNTKCRCKPNFFCNSTVCEHCDPCTKCEHGIIKECTLTSNTKCKEEGSRSN
notes: not shown: Fc part

“And” between values parts separate entries of the source, which are not always exact repeats. Equal values may be shown once. Read-outs that look alike come from different tables or passages of the source.

For one test, the target named is HLA-pfFasL (human). In words: cell-based or functional assay.
Test [1] addresses T1, Fas (CD95/APO-1) on Jurkat cells. Description: cell-based or functional assay.
The target is the same in test [2]. Description: cell-based or functional assay. This is another data set of the same source.
Test [3] addresses B6. Description: SPR (BIAcore), Fas-Fc immobilised on chip, FasL construct as analyte; reference cFasL. Here is the method: (§1) The experiments were carried out on a BIAcore 3000 optical biosensor (GE healthcare, Chalfont, UK). The FasL chimeras were produced as COS supernatants in Opti-MEM medium, concentrated 100 times, dialyzed against PBS and sterilized by filtration. Recombinant Fas-Fc (R&Dsystems, Minneapolis, Minn.) was covalently coupled to a carboxymethyl dextran flow cell (CM5, BIAcore) following the manufacturer's recommendations. The level of immobilization was 2,000 resonance units (RU). Binding of the FasL chimeras was assayed at concentrations ranging from 0.2 to 100 nM for IgFasL, 0.2 to 44 nM for cFasL, 0.2 to 37.5 nM for D2FasL, and 0.25 to 8 nM for D1IgD2FasL, in Hepes-buffered saline, at a 30 μl/min flow rate. Association was monitored for 5 min before initiating the dissociation phase for another 11 min with Hepes-buffered saline. The flow cell was regenerated with 4M MgCl2. The sensorgrams were analyzed using the BIAeval 4.1 software (BIAcore). The background of the Opti-MEM medium was at 30 RU.
(§2) The affinity of the FasL chimeras for Fas was measured using the surface plasmon resonance Biacore® method, against recombinant Fas-Fc immobilized on a chip. IgFasL, D2FasL, D1IgD2FasL and sFasL as a control, were produced as supernatants in COS cells cultured in serum-free medium, concentrated 100 times, and dialysed against PBS.
A general note: SPR reads the build-up and loss of mass on a sensor chip optically.

Test [4] has as its target B6. Description: SPR (BIAcore 3000), Fas-Fc immobilised on CM5 chip, FasL construct as analyte. How it is done:
as §1, §2

In test [5] the target is B6. Description: SPR (BIAcore 3000), Fas-Fc immobilised on CM5 chip. How it is done: as §1, §2
The target in test [6] is T1, Fas (CD95/APO-1) on Jurkat cells. Description: cell-based or functional assay. This is another data set of the same source.
For the test “D2FasL”, the target named is B5. In words: SPR (BIAcore 3000), Fas-Fc immobilised on CM5 chip, FasL construct as analyte. Here is the method: as §1, §2
The target of the test “D1IgD2FasL” is B4. Described as above. How it is done:
as §1, §2

The next test has as its target T2, cleaved FasL (cFasL). Described as above. How it is done:
as §1, §2

Turning to anti-Flag mAb (clone M2) (antibody), in the test with HLA-pfFasL (human), the enhancement of the cytotoxicity of HLA-pfFasL on CD32+ L-cells by pre-formed immune complexes amounted to 2.5 fold.

In the case of “anti-β2 microglobulin mAb (clone B2M-01) (antibody)”, the enhancement of the cytotoxicity of HLA-pfFasL on CD32+ L-cells by pre-formed immune complexes with HLA-pfFasL (human) came to 2.5 fold.

Regarding “Flag-tagged sFasL (sfFasL) (from UniProt P48023 108-281) (ligand)”, in [1], the cytotoxicity EC50 on the Jurkat cell line (MTT assay) was over 3 µg/mL and the cytotoxicity on Jurkat cells, activity against pfFasL (fold less active than pfFasL) was over 5000.

“Anti-human Fas agonistic mAb 7C11 (IgM) (antibody)”: in [1], the concentration required to kill 50% of the Jurkat cells came to 2 ng/mL.

With B1, the “cytotoxicity EC50 on the Jurkat cell line (MTT assay)” value in test [2] was 0.6 ng/mL and 15.5 pM.

With B2, the “fold affinity against cFasL (Kd ratio)” value in [3] amounted to 6 fold. Moreover, in [4], the dissociation constant Kd is 11.6 nM, the off-rate constant (koff) is 0.00041 s⁻¹ and the kon is 25000 M⁻¹ s⁻¹. In addition, the “fold difference of Kd against cFasL” value in test [5] was 6 fold.

Consider B3, for which the “cytotoxicity EC50 on the Jurkat cell line (MTT assay)” value in [2] is over 3 µg/mL. In test [6], the “cytotoxicity on Jurkat cells, activity against pfFasL” value is ≥ 5000 fold less active than pfFasL.

For B4, the “cell death of Jurkat cells (MTT assay), potency against IgFasL” value in test [6] is 125 fold less potent than IgFasL.

Consider B5, for which the “fold affinity against cFasL (Kd ratio)” value in [3] came out at 2 fold. Further, in test [5], the “fold difference of Kd against cFasL” value amounted to 2 fold. The “cell death of Jurkat cells (MTT assay), potency against IgFasL” value in test [6] was 12.5 fold less potent than IgFasL.

For B6, in the test with D2FasL, the affinity, expressed as Kd, was 38.5 nM; the koff is 0.006 s⁻¹; the kon is 160000 M⁻¹ s⁻¹. Besides, in the test with D1IgD2FasL, binding was put at a Kd of 25.6 nM, the koff worked out at 0.0033 s⁻¹ and the kon stood at 130000 M⁻¹ s⁻¹. In the test with cleaved FasL (cFasL), this molecule had a Kd of 69.4 nM, a koff of 0.0059 s⁻¹ and a kon of 84000 M⁻¹ s⁻¹.
